Biological target: E protein of YFV-17D virus (Yellow fever virus strain 17D, UniProt P03314 286-778)
Assay: cell-based or functional assay

E protein of YFV-17D virus, sequence (P03314 286-778 limits assumed): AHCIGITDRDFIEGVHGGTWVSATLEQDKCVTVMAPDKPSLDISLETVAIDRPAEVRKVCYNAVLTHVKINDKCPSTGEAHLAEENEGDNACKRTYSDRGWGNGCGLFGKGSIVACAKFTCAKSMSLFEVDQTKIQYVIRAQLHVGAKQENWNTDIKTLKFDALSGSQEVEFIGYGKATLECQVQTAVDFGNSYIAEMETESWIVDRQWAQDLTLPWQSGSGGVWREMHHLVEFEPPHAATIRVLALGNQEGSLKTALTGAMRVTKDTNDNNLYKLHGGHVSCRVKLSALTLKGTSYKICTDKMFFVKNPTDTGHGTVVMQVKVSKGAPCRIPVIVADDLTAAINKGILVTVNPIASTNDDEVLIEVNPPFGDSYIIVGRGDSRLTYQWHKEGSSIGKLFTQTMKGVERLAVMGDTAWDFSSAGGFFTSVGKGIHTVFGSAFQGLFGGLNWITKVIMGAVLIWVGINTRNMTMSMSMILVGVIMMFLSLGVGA

B1: human monoclonal antibody YFV-136 (antibody, V domains shown)
VH: QVQLQESGPGLVKPSGTLSLTCAVSGGSISSSNWWSWVRQPPGKGLEWIGDIYHSGSTSYNPSLKSRVTISVDRSKNQFSLKLSSVTAADTAVYYCARAPLVNWYYFDYWGQGTLVTVSS
VL: QSVLTQPPSVSAAPGQKVTISCSGSSSNIGNNYVSWYQQLPGTAPKLLIYDNNKGPSGIPDRFSGSKSGTSATLGITGLQTGDEADYYCGTWDTSLSAGRVFGGGTKLTVL
IC50, focus reduction neutralization test (FRNT) of YFV-17D in Vero cells: < 10 ng/mL

— patent US20230072640A1 (VANDERBILT UNIVERSITY, published 2023)
